Substrate in this data set: CC(=O)C(=O)O
Briefly: acetolactate to acetoin, creatine/naphthol colorimetric A525, Michaelis-Menten. Type of data set: biochemical, Oryza sativa. To be noted: pH 7.5 phosphate, 10 mM MgCl2, 20 uM FAD, 1 mM thiamine pyrophosphate, 37 °C, no herbicide. The text has this:
acetolactate to acetoin, creatine/naphthol colorimetric A525, Michaelis-Menten on AHAS-WT (rice acetohydroxyacid synthase)

B1: AHAS-WT (rice acetohydroxyacid synthase) (Oryza sativa Japonica Group; DEL548-548) (protein)
chain: TPLRPWGPAEPRKGADILVEALERCGVSDVFAYPGGASMEIHQALTRSPVITNHLFRHEQGEAFAASGYARASGRVGVCVATSGPGATNLVSALADALLDSVPMVAITGQVPRRMIGTDAFQETPIVEVTRSITKHNYLVLDVEDIPRVIQEAFFLASSGRPGPVLVDIPKDIQQQMAVPVWDTSMNLPGYIARLPKPPATELLEQVLRLVGESRRPILYVGGGCSASGDELRWFVELTGIPVTTTLMGLGNFPSDDPLSLRMLGMHGTVYANYAVDKADLLLAFGVRFDDRVTGKIEAFASRAKIVHIDIDPAEIGKNKQPHVSICADVKLALQGLNALLQQSTTKTSSDFSAWHNELDQQKREFPLGYKTFGEEIPPQYAIQVLDELTKGEAIIATGVGQHQMWAAQYYTYKRPRQWLSSAGLGAMGFGLPAAAGASVANPGVTVVDIDGDGSFLMNIQELALIRIENLPVKVMVLNNQHLGMVVQEDRFYKANRAHTYLGNPECESEIYPDFVTIAKGFNIPAVRVTKKSEVRAAIKKMLETPGPYLLDIIVPHQEHVLPMIPSGGAFKDMILDGDGRTVY
notes: mature AHAS, N-terminal 59-residue signal (transit) peptide removed; pGEX4T2, E. coli Rosetta; GST tag cut by thrombin; 64 kDa; WT mainly dimer (128 kDa), small tetramer peak (256 kDa); deletion mutant dimer only
For the protein B1, the Michaelis-Menten constant (Km) was 9.4 ± 0.4 mM, the turnover number (kcat) was 6.6 ± 0.5 s⁻¹ and the kcat/Km is 700 ± 50 M⁻¹ s⁻¹.

B2: AHAS-WT (rice acetohydroxyacid synthase) (Oryza sativa Japonica Group) (protein)
chain: TPLRPWGPAEPRKGADILVEALERCGVSDVFAYPGGASMEIHQALTRSPVITNHLFRHEQGEAFAASGYARASGRVGVCVATSGPGATNLVSALADALLDSVPMVAITGQVPRRMIGTDAFQETPIVEVTRSITKHNYLVLDVEDIPRVIQEAFFLASSGRPGPVLVDIPKDIQQQMAVPVWDTSMNLPGYIARLPKPPATELLEQVLRLVGESRRPILYVGGGCSASGDELRWFVELTGIPVTTTLMGLGNFPSDDPLSLRMLGMHGTVYANYAVDKADLLLAFGVRFDDRVTGKIEAFASRAKIVHIDIDPAEIGKNKQPHVSICADVKLALQGLNALLQQSTTKTSSDFSAWHNELDQQKREFPLGYKTFGEEIPPQYAIQVLDELTKGEAIIATGVGQHQMWAAQYYTYKRPRQWLSSAGLGAMGFGLPAAAGASVANPGVTVVDIDGDGSFLMNIQELALIRIENLPVKVMVLNNQHLGMVVQWEDRFYKANRAHTYLGNPECESEIYPDFVTIAKGFNIPAVRVTKKSEVRAAIKKMLETPGPYLLDIIVPHQEHVLPMIPSGGAFKDMILDGDGRTVY
notes: as for B1
For the protein B2, the Michaelis-Menten constant (Km) was found to be 9.2 ± 0.4 mM, the catalytic constant (kcat) is 6.7 ± 0.3 s⁻¹ and the kcat/Km was 710 ± 30 M⁻¹ s⁻¹.

By Km is commonly meant the substrate concentration at which the rate is half of its maximum. In general, kcat refers to the number of substrate molecules converted per active site and unit of time at saturation. The term kcat/Km denotes the second-order rate constant that governs catalysis at low substrate concentration.
